± gives the standard deviation of the averaged measurements.
The sequences below were run on Saccharomyces cerevisiae (assay: protein stability index of tFT-peptide fusion (C-terminal peptide) (PSI (0-1 scale)); higher = more stable (slower turnover)). Settings: genetic background: wild type; temperature: 30 C.
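Also: PSI is a weighted mean of sequencing reads over stability bins, variants kept only with over 10 reads, mCherry proximal and sfGFP distal, peptide attached via GGGS linker.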

Row | Sequence | protein stability index
1 | SLPPRPCPSHLH | 0.786 ± 0.081
2 | SLPRWLPPPLQS | 0.687 ± 0.0095
3 | SLPSLLFLISLP | 0.543 ± 0.054
4 | SLPSRPLSFYSP | 0.715 ± 0.068
5 | SLPWVLLPTGPY | 0.751 ± 0.075
6 | SLQTHCHKGPLS | 0.718 ± 0.0099
7 | SLRLMTFPPLLL | 0.68 ± 0.08
8 | SLRPPLRPPTVV | 0.601 ± 0.017
9 | SLSAPPPRSTSP | 0.597 ± 0.021
10 | SLSFSLPLFSLG | 0.681 ± 0.013
11 | SLSPARKDSSLP | 0.683 ± 0.15
12 | SLSPPSPTPSHS | 0.7347 ± 0.0043
13 | SLSSAALFHGPF | 0.598 ± 0.065
14 | SLSSPILYLFAS | 0.65 ± 0.013
15 | SLTCRKQTVRVI | 0.53 ± 0.012
16 | SLVSYSPPLPPP | 0.681 ± 0.034
17 | SLWGFWRVVGRR | 0.594 ± 0.052
18 | SLYRSAARHLGI | 0.754 ± 0.037
19 | SMFGSVGLMPCG | 0.656 ± 0.02
20 | SMLLFFLPSSSS | 0.641 ± 0.046
21 | SMLVPLPPFSSA | 0.694 ± 0.0097
22 | SMRLELAALLVI | 0.546 ± 0.033
23 | SMVLRTIKKRNI | 0.661 ± 0.015
24 | SNKKRTRNEGKD | 0.6109 ± 0.0047
25 | SNNKSIRKGVSI | 0.79002 ± 6.2e-05
26 | SNQKGQIYYEPS | 0.706 ± 0.08

Row | Sequence | protein stability index
27 | SNQRQRETKREE | 0.677 ± 0.039
28 | SNRSVININIRI | 0.616 ± 0.058
29 | SPACFKIFCRCF | 0.523 ± 0.046
30 | SPAFSLIPCPLF | 0.742 ± 0.059
31 | SPATDRTSLFES | 0.729 ± 0.022
32 | SPCPPPPAHPPR | 0.728 ± 0.026
33 | SPDLTRPPLPPP | 0.693 ± 0.015
34 | SPFPFLLTAPLA | 0.538 ± 0.0094
35 | SPGPPLLLPPPL | 0.688 ± 0.085
36 | SPGRSSTLPPVF | 0.7101 ± 0.00072
37 | SPGRVSRGNASV | 0.645 ± 0.017
38 | SPGSSIFLYFFT | 0.729 ± 0.022
39 | SPHTPDPTTTPH | 0.648 ± 0.097
40 | SPLETLLCTPSI | 0.675 ± 0.019
41 | SPLPPPPHPSPF | 0.505 ± 0.017
42 | SPLRPPSLPAPG | 0.653 ± 0.015
43 | SPLRSCPADPSQ | 0.763 ± 0.082
44 | SPLSLPSIPFGV | 0.672 ± 0.075
45 | SPLTYTAPRCPR | 0.82 ± 0.088
46 | SPLVSSPPPALL | 0.643 ± 0.081
47 | SPPALPRPPRRP | 0.708 ± 0.044
48 | SPPHPRPPTLRT | 0.609 ± 0.013
49 | SPPLSLPFFPRP | 0.641 ± 0.019
50 | SPPPAPVPAPPR | 0.678 ± 0.048
51 | SPPPPRPPSQPS | 0.674 ± 0.021
52 | SPPPPTPPLSPP | 0.669 ± 0.0051

Row | Sequence | protein stability index
53 | SPPPSSTSTSTS | 0.688 ± 0.061
54 | SPPPTSHPSAPP | 0.638 ± 0.056
55 | SPPSPFAFPLPP | 0.67473 ± 0.00064
56 | SPPSPPSPPPLV | 0.745 ± 0.013
57 | SPPSPYPPPLDR | 0.695 ± 0.021
58 | SPPSSFPVFTLL | 0.728 ± 0.05
59 | SPPTPRIPPPLP | 0.663 ± 0.035
60 | SPPTSPAPLPPP | 0.6502 ± 0.0032
61 | SPPTTHPPSSHG | 0.7486 ± 0.0062
62 | SPPWGQGSVSSK | 0.729 ± 0.052
63 | SPQPPHSPLSAR | 0.653 ± 0.024
64 | SPRFLLNCWGRL | 0.821 ± 0.027
65 | SPRGRGARRGRI | 0.705 ± 0.028
66 | SPRLHFPPRHPC | 0.717 ± 0.015
67 | SPRLLPSPTRVA | 0.643 ± 0.059
68 | SPRLSGVPGHAP | 0.663 ± 0.027
69 | SPRPTRPALLPP | 0.708 ± 0.033
70 | SPRRWVSGHPRG | 0.711 ± 0.042
71 | SPRSPACPTPDR | 0.734 ± 0.011
72 | SPRSPPSPPPRP | 0.746 ± 0.045
73 | SPRSPPSTSSPQ | 0.6802 ± 0.001
74 | SPSGCVGSSAQS | 0.68061 ± 0.00045
75 | SPSLAPSPSALL | 0.598 ± 0.018
76 | SPSLPPLSPPNP | 0.699 ± 0.039
77 | SPSPLSHSPLAF | 0.647 ± 0.009
78 | SPSPPLAPPSPS | 0.671 ± 0.0073

Row | Sequence | protein stability index
79 | SPSPPSLLPAPS | 0.74 ± 0.062
80 | SPSQRPLPSISP | 0.718 ± 0.01
81 | SPSSLPPVPPSP | 0.6764 ± 0.0036
82 | SPSSPPPSPPPA | 0.727 ± 0.016
83 | SPSTSIPPLPAS | 0.73 ± 0.016
84 | SPTARRLSGCIS | 0.658 ± 0.086
85 | SPTIRPDESPVQ | 0.6893 ± 0.0067
86 | SPTPHPPPSPPL | 0.728 ± 0.023
87 | SPTPSLPFPALF | 0.737 ± 0.097
88 | SPTRPPSPIISR | 0.7181 ± 0.002
89 | SPVLSPHSRSSF | 0.633 ± 0.087
90 | SPVLSPLSLPPH | 0.6982 ± 0.0042
91 | SPVPIPPSPSRP | 0.687 ± 0.019
92 | SPVRPPLSSLYS | 0.705 ± 0.04
93 | SPVSLPIPYTFL | 0.6891 ± 0.0054
94 | SQAALLIPLFSL | 0.681 ± 0.03
95 | SQFWGCALFIEH | 0.652 ± 0.018
96 | SQGLALFLRPGY | 0.628 ± 0.057
97 | SQSFFDGVLVRV | 0.673 ± 0.059
98 | SRAAGILCVVQI | 0.615 ± 0.084
99 | SRAPPTSLVWGF | 0.678 ± 0.097
100 | SRDIKTDCLRRV | 0.688 ± 0.078
101 | SREKRKEEQTQK | 0.717 ± 0.018
102 | SRFGSVSCRPSI | 0.713 ± 0.079
103 | SRFPPDTFFSFL | 0.802 ± 0.14
104 | SRGARRRGGAGR | 0.656 ± 0.056

Row | Sequence | protein stability index
105 | SRGPSLYLCGVR | 0.63 ± 0.00074
106 | SRIALLSLGAIL | 0.707 ± 0.028
107 | SRIPARCDGKCI | 0.6722 ± 0.0037
108 | SRKEKNEKRSWG | 0.674 ± 0.041
109 | SRLGLLTDGVYA | 0.583 ± 0.025
110 | SRLLLPPRGILP | 0.76 ± 0.15
111 | SRLPSYVSACSF | 0.671 ± 0.011
112 | SRLRPHNSSTPV | 0.716 ± 0.053
113 | SRNLRRLEIRRE | 0.743 ± 0.027
114 | SRPFAILLCAEK | 0.62 ± 0.015
115 | SRPLANYARCSS | 0.639 ± 0.036
116 | SRPSPAMFLFSP | 0.737 ± 0.1
117 | SRRCKAFLCRGY | 0.6663 ± 0.0053
118 | SRRSNMRNMRTT | 0.657 ± 0.081
119 | SRRYLPHRPTSL | 0.732 ± 0.071
120 | SRTAFNRGTTRD | 0.681 ± 0.044
121 | SRVRSPPWTRKF | 0.739 ± 0.1
122 | SRWTFSFYRNLD | 0.683 ± 0.053
123 | SSAALSPPPPRP | 0.724 ± 0.027
124 | SSCTRLSILVWF | 0.52 ± 0.0056
125 | SSDFVFGHRFCR | 0.693 ± 0.015
126 | SSEKKKEDGGLG | 0.687 ± 0.069
127 | SSFPAGGWLFFL | 0.682 ± 0.029
128 | SSFVFGLCGGVA | 0.694 ± 0.03
129 | SSGPPRLPHSRR | 0.646 ± 0.046
130 | SSGTLSPLSPVP | 0.655 ± 0.027

Row | Sequence | protein stability index
131 | SSHSPFSPVLLP | 0.71 ± 0.017
132 | SSHVPPDLPSLH | 0.692 ± 0.031
133 | SSHYSSPAALPY | 0.696 ± 0.019
134 | SSILQFSCFHGN | 0.707 ± 0.036
135 | SSLEGMRSGLCR | 0.69 ± 0.045
136 | SSLFVISIPFRS | 0.639 ± 0.015
137 | SSLLPLLVPLAP | 0.723 ± 0.076
138 | SSLPVPGPFVND | 0.69 ± 0.066
139 | SSPALPPQPPSH | 0.723 ± 0.0054
140 | SSPLLSISPHFP | 0.666 ± 0.042
141 | SSPLPPPSPLPA | 0.678 ± 0.031
142 | SSPLSSRFLLCL | 0.579 ± 0.027
143 | SSPPHLPRPSSP | 0.748 ± 0.024
144 | SSPPPCPLPTYP | 0.624 ± 0.068
145 | SSPPPLPPSPPP | 0.673 ± 0.019
146 | SSPRRRLHSLSL | 0.782 ± 0.04
147 | SSPSPCSRPLLL | 0.7112 ± 0.0011
148 | SSPSPPSLLPSL | 0.70987 ± 0.00056
149 | SSPSPPSSSSFP | 0.639 ± 0.028
150 | SSRPTLLSPPPA | 0.706 ± 0.012
151 | SSRRNNIPKRYK | 0.713 ± 0.031
152 | SSSLCSSSLGGS | 0.605 ± 0.069
153 | SSSPTFLLSPFP | 0.721 ± 0.012
154 | SSTPGWVSCDKI | 0.735 ± 0.029
155 | SSTPYRHLLTPH | 0.723 ± 0.013
156 | SSVNYPSFPPLA | 0.706 ± 0.03

Row | Sequence | protein stability index
157 | SSVQVSMGTAAG | 0.681 ± 0.036
158 | STAFRDSAMRDP | 0.664 ± 0.051
159 | STCPPIFFVSSW | 0.7248 ± 0.0063
160 | STLEKTFRVAKR | 0.694 ± 0.011
161 | STLIARAQRGQA | 0.639 ± 0.073
162 | STLSSPSRRLLP | 0.677 ± 0.03
163 | STPPPPPTFQLS | 0.691 ± 0.047
164 | STPRTPNFPATA | 0.706 ± 0.019
165 | STQIRQILERKC | 0.653 ± 0.051
166 | STRPDLLLLAES | 0.6 ± 0.055
167 | STSPFPAPRRAL | 0.775 ± 0.052
168 | STTILIKKKNDK | 0.684 ± 0.041
169 | STTPKFNILASD | 0.646 ± 0.022
170 | STVKVVIIHFKI | 0.48 ± 0.036
171 | STVPDRPRLPVY | 0.674 ± 0.022
172 | SVCVLGPLDGSC | 0.701 ± 0.022
173 | SVEKYDGGKGVV | 0.69 ± 0.0095
174 | SVESAVRALQPT | 0.731 ± 0.042
175 | SVFTLLGSMCLE | 0.664 ± 0.011
176 | SVGGSRSGRGGQ | 0.688 ± 0.011
177 | SVGLLLSPFPPL | 0.6882 ± 0.0063
178 | SVKGRVPLYVSE | 0.658 ± 0.042
179 | SVLVQLLATTKS | 0.675 ± 0.028
180 | SVPLTLLPPLFP | 0.694 ± 0.016
181 | SVPLYRLSSWRN | 0.695 ± 0.021
182 | SVPPPPLARALL | 0.759 ± 0.057

Row | Sequence | protein stability index
183 | SVPTPPLVPSIS | 0.665 ± 0.07
184 | SVSLPPSLPFLL | 0.764 ± 0.03
185 | SVVGGVVVELEG | 0.65 ± 0.0096
186 | SVVVWRWVCGWS | 0.549 ± 0.014
187 | SVWDGSRVKCST | 0.704 ± 0.04
188 | SVYPSSPTRPPP | 0.683 ± 0.048
189 | SVYVGAQAFCTC | 0.612 ± 0.025
190 | SWCDKGSCLVDE | 0.695 ± 0.07
191 | SWIQLDAWETRS | 0.696 ± 0.041
192 | SWKEAIVAISGS | 0.612 ± 0.058
193 | SWRKGAHRPVEV | 0.66 ± 0.036
194 | SWRRAASSGGGE | 0.618 ± 0.074
195 | SWSVSVNMVGQS | 0.6829 ± 0.0042
196 | SWVFSVDNGLVV | 0.6133 ± 0.0012
197 | SWYQPSLREYAQ | 0.74268 ± 0.00062
198 | SWYSRARMAGEG | 0.652 ± 0.0093
199 | SYGTIGYLATSF | 0.687 ± 0.075
200 | SYLRGPIVTGFG | 0.712 ± 0.077
201 | SYLVLLHDRGMK | 0.665 ± 0.011
202 | SYMCRCALDCFL | 0.643 ± 0.035
